To fix the notation:
B1: PRT-66 (protein)
chain: MANQEIRYSEVTPYHVTSVWTKGVTPPANFTQGEDVFHAPYVANQGWYDITKTFNGKDDLLCGAATAGNMLHWWFDQNKDYIKRYLEEHPEKQKINFNGEQMFDVKEAIDTKNHQLDSKLFEYFKEKAFPYLSTKHLGVFPDHVIDMFINGYRLSLTNHGPTPVKEGSKDPRGGIFDAVFTRGDQSKLLTSRHDFKEKNLKEISDLIKKELTEGKALGLSHTYANVRINHVINLWGADFDSNGNLKAIYVTDSDSNASIGMKKYFVGVNSAGKVAISAKEIKEDNIGAQVLGLFTLSTGQDSWNQTN
B2: PRT-532 (protein)
chain: MANQEIRYSEETPKTITSIWTKGVTPPTDFIKNEDVLHAPYIANQGWYDITKTFNGKDDLLCGAATAGNMLHWWFDQNKEEIENYLKKHPEKQKINFNGEQMFDVKEAIDTKDSQTDSKLFEYFKDKAFPYLSTKHLGVMPDLVLDMFINGYYLSLGKHGPTPVKRGTKDPRGGIFDAVFTRGDQSKLLTARHDFKEKTLNEISDLIKQELTEGKALALSHTYANVRINHVINLWGADFNSEGNLEAIYVTDSDSNASIGMKKYYVGVNAAGKVAISAKEIEGDNIGAQVLGLFTLSTGQDIWNQTNLEHHHHHH
B3: PRT-615 (protein)
chain: MQITSVWTKGVTPLTPEQFRYNNEDVIHAPYLAHQGWYDITKAFDGKDNLLCGAATAGNMLHWWFDQNKTEIEAYLSKYPEKQKIIFNNQELFDLRAAINTKDSQTNSQLFNYFRDKAFPNLSARQLGVMPDLVLDMFINGYYLNVFKTQSTDVNRPYQDKDKRGGIFDAVFNRGDQTTLLTARHDLKNKGLNDISTIIKQELSSGRALALSHTYANVSISHVINLWGADFNAEGNLEAIYVTDSDANSNIGMKKYKVGINAHGHVAISAKKIEGENIGAQVLGLFTLSSGKDIWQKLSLEHHHHHH
B4: PRT-691 (protein)
chain: MQITTVWTKGVTPPTPEQFRYNNEDVIHAPYLPNQGWYDITKTFNGKDNLLCGAATAGNMLHWWFDQNKTEIEAYLSKYPEKQKIIFNNQELFDLRAAINTKDSQTNSQLFNYFRDKAFPNLSARQLGVMPDLVLDMFINGYYLNVFKTQSTDVNRPYQDRDKRGGIFDAVFNRGDQTTLLTARHDLKNKTLNDISTLIKQELSSGKALALSHTYANVSISHVINLWGADFNAEGNLEAIYVTDSDANASIGMKKYYVGVNAHGKVAISAKKIEGENIGAQVLGLFTLSSGKDIWQKLSLEHHHHHH
B5: PRT-629 (protein)
chain: MQITSVWTKGVTPLTPEQFRYNNEDVIHAPYLAHQGWYDITKAFDGKDNLLCGAATAGNMLHWWFDQNKEEIEAYLKKYPEKQKIIFNNQELFDLKAAIDTKDSQTNSQLFNYFRDKAFPNLSARQLGVMPDLVLDMFINGYYLNVFKTQSTDVNRPYQDKDKRGGIFDAVFTRGDQTTLLTARHDLKNKGLNDISTIIKQELTEGRALALSHTYANVSISHVINLWGADFNAEGNLEAIYVTDSDANASIGMKKYFVGINAHGHVAISAKKIEGENIGAQVLGLFTLSSGKEIWQKLSLEHHHHHH
B6: PRT-634 (protein)
chain: MQITSVWTKGVTPLTPEQFRYNNYDVIHAPYKPNQGWYDITKAFDGKDNLLCGAATAGNMLHWWFDQNKTEIEAYLSKHPEKQKIIFNNQELFDLKAAIDTKDSQTNSQLFNYFRDKAFPNLSARQLGVMPDLVLDMFINGYYLNVFKTQSTDVNRPYQDKDKRGGIFDAVFTRGDQTTLLTARHDLKNKGLNDISTIIKQELTEGKALALSHTYANVSISHVINLWGADFNAEGNLEAIYVTDSDANASIGMKKYFVGINAHGHVAISAKKIEGENIGAQVLGLFTLSSGKDIWQKLSLEHHHHHH
B7: PRT-632 (protein)
chain: MQITSVWTYGVTPLTPEQFRYNNYEVIHAPYKEGQGWYDITKAFDGKDNLLCGAATAGNMLHWWFDQNKTEIEAYLSKHPEKQKIIFNNQELFDLKAAIDTKDSQTNSQLFNYFRDKAFPNLSARQLGVMPDLVLDMFINGYYLNVFKTQSTDVNRPYQDKDKRGGIFDAVFTRGDQTTLLTARHDLKNKGLNDISTIIKQELTEGRALALSHTYANVSISHVINLWGADFNAEGNLEAIYVTDSDANASIGMKKYFVGINAHGHVAISAKKIEGENIGAQVLGLFTLSSGKDIWQKLSLEHHHHHH
B8: PRT-640 (protein)
chain: MQITSVWTKGVTPLTPEQFRYNNEDVIHAPYLAHQGWYDITKTFNGKDNLLCGAATAGNMLHWWFDQNKTEIEAYLSKHPEKQKIIFNNQELFDLKAAIDTKDSQTNSQLFNYFRDKAFPNLSARQLGVMPDLVLDMFINGYYLNVFKTQSTDVNRPYQDKDKRGGIFDAVFTRGDQTTLLTARHDLKNKGLNDISTIIKQELTEGRALALSHTYANVSISHVINLWGADFNAEGNLEAIYVTDSDADEKIGMKKYFVGINAHGHVAISAKKIEGENIGAQVLGLFTLSSGKDIWQKLSLEHHHHHH
B9: PRT-654 (protein)
chain: MQITSVWTKGVTPLTPEQFRYNNEDVIHAPYLAHQGWYDITKAFDGKDNLLCGAATAGNMLHWWFDQNKTEIEAYLSKHPEKQKIIFNNQELFDLKAAIDTKDSQTNSQLFNYFRDKAFPNLSARQLGVMPDLVLDMFINGYYLNVFKTQSTDVNRPYQDKDKRGGIFDAVFTRGDQTTLLTARHDLKNKGLNDISTIIKQELTEGRALALSHTTGNVSYSHVINLWGADFNAEGNLEAIYVTDSDANASIGMKKYFVGINAHGHVAISAKKIEGENVGAQVLGLFTLSSGKDIWQKLSLEHHHHHH
B10: PRT-620 (protein)
chain: MQITSVWTKGVTPLTPEQFRYNNEDVIHAPYLAHQGWYDITKAFDGKDNLLCGAATAGNMLHWWFDQNKTEIEAYLSKHPEKQKIIFNNQELFDLKAAIDTKDSQTNSQLFNYFRDKAFPNLSARQLGVMPDLVLDMFINGYYLNVFKTQSTDVNRPYQDKDKRGGIFDAVFTRGDQTTLLTARHDLKNKTLKEISDIIKQELTEGRALALSHTYANVSISHVINLWGADFNAEGNLEAIYVTDSDANASIGMKKYFVGINAHGHVAISAKKIEGENIGAQVLGLFTLSSGKDIWQKLSLEHHHHHH
B11: PRT-665 (protein)
chain: MQITSVWTKGVTPPTPEQFRYNNEDVIHAPYLAHQGWYDITKAFDGKDNLLCGAATAGNMLHWWFDQNKTEIEAYLSKYPEKQKIIFNNQELFDLRAAINTKDSQTNSQLFNYFRDKAFPNLSARQLGVMPDLVLDMFINGYYLNVFKTQSTDVNRPYQDKDKRGGIFDAVFTRGDQTTLLTARHDLSNKGLNDISTIIKQELTEGRALALSHTYANVSISHVINLWGADFNAEGNLEAIYVTDSDSNASIGMKKYYVGINASGHVAISAKKIEGEVIGAQVLGLFTLSSGKEIWQKLSLEHHHHHH
B12: PRT-659 (protein)
chain: MQITSVWTKGVTPLTPEQFRYNNEDVIHAPYLAHQGWYDITKAFDGKDNLLCGAATAGNMLHWWFDQNKTEIEAYLSKHPEKQKIIFNNQELFDLREAINTKDDQKDSKLFNYFREKAFPNLSARQLGVMPDLVLDMFINGYYLNVFKTQSTDVNRPYQDKDKRGGIFDAVFTRGDQTTLLTARHDLKNKGLNDISTIIKQELTEGRALALSHTYANVSISHVINLWGADFNAEGNLEAIYVTDSDANASIGMKKYFVGINAHGHVAISAKKIEGENIGAQVLGLFTLSSGKDIWQKLSLEHHHHHH
B13: PRT-563 (protein)
chain: MANQEIRYSEATPSHITSVWTKGVTPPTQFIQNEDVLHAPYIANQGWYDITKTFNGKDDLLCGAATAGNMLHWWFDQNKTQIENYLKKHPEKQKINFNGEQMFDVKEAIDTKDSQTDSALFSYFKDKAFPYLSTKHLGVFPDHVIDMFINGYRLSLTNHGPTPVKRQTKDPRGGIFDAVFTRGDQSKLLTARHDFKEKTLNEISQLIKQELTEGKALGLSHTYANVRINHVINLWGADFNAEGNLEAIYVTDSDSNASIGMKKYYVGVNAAGKVAISAKEIEGDNIGAQVLGLFTLSTGQDIWQQTNLEHHHHHH

This data set has as its target pooled human IgG.
B1 gave an Enzyme Activity Endpoint Assay (purified): Fab′2 of 49 ng/µL, an Enzyme Activity Endpoint Assay (purified): Fc of 115 ng/µL, an Enzyme Activity Endpoint Assay (purified): IgG of 15 ng/µL and an Enzyme Activity Endpoint Assay (purified): scIgG of 13 ng/µL.
The corresponding values for B2 are 409 ng/µL, 118 ng/µL, 506 ng/µL and 217 ng/µL.
The corresponding values for B3 are 778 ng/µL, 441 ng/µL, 0 ng/µL and 0 ng/µL.
For B4, the Enzyme Activity Endpoint Assay (purified): Fab′2 worked out at 184 ng/µL, the Enzyme Activity Endpoint Assay (purified): Fc stood at 337 ng/µL, the Enzyme Activity Endpoint Assay (purified): IgG was determined as 110 ng/µL and the Enzyme Activity Endpoint Assay (purified): scIgG is 682 ng/µL.
B5: the Enzyme Activity Endpoint Assay (purified): Fab′2 worked out at 542 ng/µL, the Enzyme Activity Endpoint Assay (purified): Fc came out at 425 ng/µL, the Enzyme Activity Endpoint Assay (purified): IgG is 161 ng/µL and the Enzyme Activity Endpoint Assay (purified): scIgG was determined as 461 ng/µL.
As to B6, the Enzyme Activity Endpoint Assay (purified): Fab′2 is 755 ng/µL, the Enzyme Activity Endpoint Assay (purified): Fc came out at 394 ng/µL, the Enzyme Activity Endpoint Assay (purified): IgG was determined as 0 ng/µL and the Enzyme Activity Endpoint Assay (purified): scIgG amounted to 0 ng/µL.
B7 displayed an Enzyme Activity Endpoint Assay (purified): Fab′2 of 703 ng/µL, an Enzyme Activity Endpoint Assay (purified): Fc of 399 ng/µL, an Enzyme Activity Endpoint Assay (purified): IgG of 0 ng/µL and an Enzyme Activity Endpoint Assay (purified): scIgG of 0 ng/µL.
B8 registered an Enzyme Activity Endpoint Assay (purified): Fab′2 of 951 ng/µL, an Enzyme Activity Endpoint Assay (purified): Fc of 507 ng/µL, an Enzyme Activity Endpoint Assay (purified): IgG of 0 ng/µL and an Enzyme Activity Endpoint Assay (purified): scIgG of 0 ng/µL.
With B9, the Enzyme Activity Endpoint Assay (purified): Fab′2 was determined as 401 ng/µL, the Enzyme Activity Endpoint Assay (purified): Fc worked out at 0 ng/µL, the Enzyme Activity Endpoint Assay (purified): IgG was determined as 1170 ng/µL and the Enzyme Activity Endpoint Assay (purified): scIgG amounted to 11 ng/µL.
In the case of B10, the Enzyme Activity Endpoint Assay (purified): Fab′2 stood at 792 ng/µL, the Enzyme Activity Endpoint Assay (purified): Fc came out at 448 ng/µL, the Enzyme Activity Endpoint Assay (purified): IgG is 0 ng/µL and the Enzyme Activity Endpoint Assay (purified): scIgG is 0 ng/µL.
In turn, B11 showed an Enzyme Activity Endpoint Assay (purified): Fab′2 of 816 ng/µL, an Enzyme Activity Endpoint Assay (purified): Fc of 414 ng/µL, an Enzyme Activity Endpoint Assay (purified): IgG of 63 ng/µL and an Enzyme Activity Endpoint Assay (purified): scIgG of 109 ng/µL.
With B12, the Enzyme Activity Endpoint Assay (purified): Fab′2 was 946 ng/µL, the Enzyme Activity Endpoint Assay (purified): Fc amounted to 499 ng/µL, the Enzyme Activity Endpoint Assay (purified): IgG was found to be 0 ng/µL and the Enzyme Activity Endpoint Assay (purified): scIgG was 0 ng/µL.
The protein B13 had an Enzyme Activity Endpoint Assay (purified): Fab′2 of 816 ng/µL, an Enzyme Activity Endpoint Assay (purified): Fc of 389 ng/µL, an Enzyme Activity Endpoint Assay (purified): IgG of 0 ng/µL and an Enzyme Activity Endpoint Assay (purified): scIgG of 0 ng/µL.

The values are drawn from US20250027068.
